Test results: patent US9067985B2, “Bacteriorhodopsin fusion membrane protein expression system” (Academia Sinica, priority 2012, dated 2015)

Assay: Phosphatase assay (Malachite Green) of purified UppP
Assay type: biochemical, E. coli
Conditions: 100 μM Fpp as model substrate, 37° C., 0.2% DDM, pH 7.5
Method: UppP activity was determined by the Malachite Green assay using Phosphate Colorimetric Assay Kit purchased from BioVision. The enzymatic assay reaction mixture (200 μl) containing 50 mM Tris-HCl, pH 7.5, 150 mM NaCl, 0.2% DDM, 100 μM substrate (Fpp) and appropriately diluted purified UppP was incubated at 37° C. The reaction was quenched by adding 30 μl of Malachite Green Reagent and then the tubes were incubated for 30 min at room temperature. After incubation, the reaction mixture was transferred to 96-well plates and the released phosphate that reacted with Malachite Green was measured at 650 nm according to the reaction time course. The amounts of released phosphate were quantified relative to a phosphate standard curve.
For testing the phosphatase activity of UppP, assays were performed in the presence of various substrates using Malachite Green assay. Since the intended substrate, Upp, was difficult to synthesize and purify (Ghachi et al. Id.), we used farnesyl pyrophosphate (Fpp) as a model substrate. It was previously reported that another E. coli undecaprenyl pyrophosphate phosphatase, PgpB, which has no sequence homology with UppP, catalyzed the dephosphorylation of Upp with a relatively low efficiency compared to diacylglycerol pyrophosphate and farnesyl pyrophosphate lipid substrates. In our activity assay test, Fpp was a suitable substrate for UppP.

B1: UppP: E. coli integral membrane enzyme undecaprenyl pyrophosphate phosphatase purified from the HmBRI/D94N fusion expression system (protein, UniProt P60932 1-273, looked up)
Undecaprenyl-diphosphatase: MSDMHSLLIAAILGVVEGLTEFLPVSSTGHMIIVGHLLGFEGDTAKTFEVVIQLGSILAVVVMFWRRLFGLIGIHFGRPLQHEGESKGRLTLIHILLGMIPAVVLGLLFHDTIKSLFNPINVMYALVVGGLLLIAAECLKPKEPRAPGLDDMTYRQAFMIGCFQCLALWPGFSRSGATISGGMLMGVSRYAASEFSFLLAVPMMMGATALDLYKSWGFLTSGDIPMFAVGFITAFVVALIAIKTFLQLIKRISFIPFAIYRFIVAAAVYVVFF
time-dependent phosphatase activity (released phosphate): functional protein capable of releasing free phosphate
